Positions count from the first letter of the chain named.
B1: IL6R-BF648/IL6R-L (antibody, human IgG1, name in EU numbering)
heavy: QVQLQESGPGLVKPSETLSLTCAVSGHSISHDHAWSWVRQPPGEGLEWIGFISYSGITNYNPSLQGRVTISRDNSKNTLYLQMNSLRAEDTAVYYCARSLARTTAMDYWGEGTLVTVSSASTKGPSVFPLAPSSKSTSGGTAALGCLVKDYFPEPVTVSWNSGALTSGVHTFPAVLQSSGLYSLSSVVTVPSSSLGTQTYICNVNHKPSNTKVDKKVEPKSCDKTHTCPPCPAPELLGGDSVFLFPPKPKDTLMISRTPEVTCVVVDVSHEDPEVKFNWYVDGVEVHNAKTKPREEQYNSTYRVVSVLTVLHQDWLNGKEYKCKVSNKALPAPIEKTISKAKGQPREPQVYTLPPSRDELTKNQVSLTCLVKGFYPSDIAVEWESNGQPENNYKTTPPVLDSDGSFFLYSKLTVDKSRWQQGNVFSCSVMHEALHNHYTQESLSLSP
light: DIQMTQSPSSLSASVGDRVTITCRASQDISSYLNWYQQKPGKAPKLLIYYTSRLHSGVPSRFSGSGSGTDFTFTISSLQPEDIATYYCQQGNTLPYTFGQGTKVEIK
notes: Alterations are those introduced into IL6R-B3
B2: IL6R-BP126/IL6R-L (antibody, human IgG1, name in EU numbering)
heavy: QVQLQESGPGLVKPSETLSLTCAVSGHSISHDHAWSWVRQPPGEGLEWIGFISYSGITNYNPSLQGRVTISRDNSKNTLYLQMNSLRAEDTAVYYCARSLARTTAMDYWGEGTLVTVSSASTKGPSVFPLAPSSKSTSGGTAALGCLVKDYFPEPVTVSWNSGALTSGVHTFPAVLQSSGLYSLSSVVTVPSSSLGTQTYICNVNHKPSNTKVDKKVEPKSCDKTHTCPPCPAPELLGGDSVFLFPPKPKDTLMISRTPEVTCVVVDVSHEDPEVKFNWYVDGVEVHNAKTKPREEQYNSTYRVVSVLTVLHQDWLNGKEYKCKVSNLALPAPIEKTISKAKGQPREPQVYTLPPSRDELTKNQVSLTCLVKGFYPSDIAVEWESNGQPENNYKTTPPVLDSDGSFFLYSKLTVDKSRWQQGNVFSCSVMHEALHNHYTQESLSLSP
light: B1 light
B3: IL6R-BP912/IL6R-L (antibody, human IgG1, name in EU numbering)
heavy: B2 heavy with L328K, A332R
light: B1 light
B4: IL6R-2B128/IL6R-L (antibody, human IgG1, name in EU numbering)
heavy: B2 heavy with Y298D, L328K
light: B1 light
B5: IL6R-2B002/IL6R-L (antibody, human IgG1, name in EU numbering)
heavy: B2 heavy with E235D, L328K
light: B1 light
B6: IL6R-2B171/IL6R-L (antibody, human IgG1, name in EU numbering)
heavy: B2 heavy with V325L, L328K
light: B1 light
B7: IL6R-2B169/IL6R-L (antibody, human IgG1, name in EU numbering)
heavy: B2 heavy with V325I, L328K
light: B1 light
B8: IL6R-BP120/IL6R-L (antibody, human IgG1, name in EU numbering)
heavy: B2 heavy with L328E
light: B1 light
B9: IL6R-BP112/IL6R-L (antibody, human IgG1, name in EU numbering)
heavy: B2 heavy with P273G, L328K
light: B1 light
B10: IL6R-BP117/IL6R-L (antibody, human IgG1, name in EU numbering)
heavy: B2 heavy with L328D
light: B1 light
B11: IL6R-BP078/IL6R-L (antibody, human IgG1, name in EU numbering)
heavy: B2 heavy with L328K, A332M
light: B1 light
B12: IL6R-BP110/IL6R-L (antibody, human IgG1, name in EU numbering)
heavy: B2 heavy with H270N, L328K
light: B1 light
B13: IL6R-BP183/IL6R-L (antibody, human IgG1, name in EU numbering)
heavy: B2 heavy with E235D, L236Y, P273G, L328A, A332K
light: B1 light
notes: the list runs over r52 and r53; copies: 2 + 2
B14: IL6R-BP179/IL6R-L (antibody, human IgG1, name in EU numbering)
heavy: B2 heavy with G239D, P273G, L328A, A332K
light: B1 light
notes: the list runs over r45 and r46; copies: 2 + 2
B15: IL6R-BP180/IL6R-L (antibody, human IgG1, name in EU numbering)
heavy: B2 heavy with G239D, P273G, L328K, A332K
light: B1 light
notes: copies: 2 + 2
B16: IL6R-BP150/IL6R-L (antibody, human IgG1, name in EU numbering)
heavy: B2 heavy with L236Y, G239D, L328A, A332R
light: B1 light
notes: the list runs over r34 and r35; copies: 2 + 2
B17: IL6R-BP177/IL6R-L (antibody, human IgG1, name in EU numbering)
heavy: B2 heavy with E235D, L236Y, G239D, P273G, L328D, A332K
light: B1 light
notes: the list runs over r41 and r42; copies: 2 + 2
B18: IL6R-G1d/IL6R-L (antibody, human IgG1)
heavy: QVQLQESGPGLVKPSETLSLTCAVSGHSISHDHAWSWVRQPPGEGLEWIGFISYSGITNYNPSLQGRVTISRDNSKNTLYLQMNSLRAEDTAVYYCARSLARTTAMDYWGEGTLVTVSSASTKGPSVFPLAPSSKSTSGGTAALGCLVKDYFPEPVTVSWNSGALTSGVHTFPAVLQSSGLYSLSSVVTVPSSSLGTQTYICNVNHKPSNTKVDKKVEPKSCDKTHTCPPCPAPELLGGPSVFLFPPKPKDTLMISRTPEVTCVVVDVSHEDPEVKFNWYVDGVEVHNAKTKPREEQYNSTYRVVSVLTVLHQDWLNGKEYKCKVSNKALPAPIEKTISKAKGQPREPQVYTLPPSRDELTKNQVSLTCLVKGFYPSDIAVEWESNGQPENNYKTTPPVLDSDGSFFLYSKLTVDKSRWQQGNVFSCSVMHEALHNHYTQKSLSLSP
light: B1 light
notes: Anti-human IL-6 receptor human IgG1 with G1d constant region (C-terminal Gly and Lys removed); template used for producing IL6R-B3; also called IgG1; copies: 2 + 2

target: T1, human FcγRIa (human, UniProt P12314 16-292, limits assumed); experiment: SPR (Biacore), FcγR over captured antibody; binding amount relative to IL6R-BF648/IL6R-L x100
T1 construct: also called FcyRIa; CD64
T1 sequence (P12314 16-292 limits assumed): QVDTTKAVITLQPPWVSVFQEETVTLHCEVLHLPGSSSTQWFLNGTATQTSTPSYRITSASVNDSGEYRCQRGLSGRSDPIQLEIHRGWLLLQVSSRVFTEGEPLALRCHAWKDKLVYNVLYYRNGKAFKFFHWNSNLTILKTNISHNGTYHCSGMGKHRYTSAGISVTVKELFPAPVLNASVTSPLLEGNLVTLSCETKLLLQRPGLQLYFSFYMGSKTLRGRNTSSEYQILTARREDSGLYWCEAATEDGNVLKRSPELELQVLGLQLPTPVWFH

Binder | relative binding
B1 | 100 % of IL6R-BF648/IL6R-L
B2 | 113 % of IL6R-BF648/IL6R-L
B3 | 60 % of IL6R-BF648/IL6R-L
B4 | 95 % of IL6R-BF648/IL6R-L
B5 | 118 % of IL6R-BF648/IL6R-L
B6 | 116 % of IL6R-BF648/IL6R-L
B7 | 73 % of IL6R-BF648/IL6R-L
B8 | 125 % of IL6R-BF648/IL6R-L
B9 | 119 % of IL6R-BF648/IL6R-L
B10 | 124 % of IL6R-BF648/IL6R-L
B11 | 106 % of IL6R-BF648/IL6R-L

target: T2, human FcγRIIa type H (human, UniProt P12318 36-217); experiment: as above
T2 construct: also called FcyRIIaH; FcγRIIa(H)
T2 sequence: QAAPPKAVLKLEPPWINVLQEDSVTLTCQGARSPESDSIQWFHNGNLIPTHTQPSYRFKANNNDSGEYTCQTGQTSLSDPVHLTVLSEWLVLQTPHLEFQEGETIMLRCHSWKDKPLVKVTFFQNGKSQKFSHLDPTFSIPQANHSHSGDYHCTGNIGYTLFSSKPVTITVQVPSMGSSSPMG

Binder | relative binding
B1 | 100 % of IL6R-BF648/IL6R-L
B2 | 132 % of IL6R-BF648/IL6R-L
B3 | 93 % of IL6R-BF648/IL6R-L
B4 | 37 % of IL6R-BF648/IL6R-L
B5 | 147 % of IL6R-BF648/IL6R-L
B6 | 115 % of IL6R-BF648/IL6R-L
B7 | 83 % of IL6R-BF648/IL6R-L
B9 | 113 % of IL6R-BF648/IL6R-L
B10 | 96 % of IL6R-BF648/IL6R-L
B11 | 89 % of IL6R-BF648/IL6R-L
B12 | 127 % of IL6R-BF648/IL6R-L

target: T3, human FcγRIIb (human, UniProt P31994 43-217, limits assumed); experiment: as above
T3 construct: also called FcyRIfb; FcγIIB
T3 sequence: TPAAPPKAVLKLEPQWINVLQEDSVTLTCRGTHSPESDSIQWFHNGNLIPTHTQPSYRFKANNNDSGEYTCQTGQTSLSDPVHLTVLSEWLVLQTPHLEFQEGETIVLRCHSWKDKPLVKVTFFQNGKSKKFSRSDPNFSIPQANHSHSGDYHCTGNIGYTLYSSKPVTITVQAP

Binder | relative binding
B1 | 100 % of IL6R-BF648/IL6R-L
B5 | 116 % of IL6R-BF648/IL6R-L
B6 | 113 % of IL6R-BF648/IL6R-L
B7 | 104 % of IL6R-BF648/IL6R-L
B8 | 114 % of IL6R-BF648/IL6R-L
B9 | 157 % of IL6R-BF648/IL6R-L
B10 | 118 % of IL6R-BF648/IL6R-L
B12 | 101 % of IL6R-BF648/IL6R-L

target: T4, human FcγRIIIa type V (human, UniProt P08637 17-208, limits assumed); experiment: as above
T4 construct: also called FcyRIIIa; FcγRIIIaV
T4 sequence (P08637 other isoform, or with tags, fused parts or gaps limits assumed): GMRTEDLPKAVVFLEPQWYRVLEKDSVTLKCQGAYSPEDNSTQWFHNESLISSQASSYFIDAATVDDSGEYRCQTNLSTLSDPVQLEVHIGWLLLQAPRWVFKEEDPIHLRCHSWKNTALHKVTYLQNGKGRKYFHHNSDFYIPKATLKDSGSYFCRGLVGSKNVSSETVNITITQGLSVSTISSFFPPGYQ

Binder | relative binding
B1 | 100 % of IL6R-BF648/IL6R-L
B3 | 97 % of IL6R-BF648/IL6R-L
B4 | 96 % of IL6R-BF648/IL6R-L
B5 | 147 % of IL6R-BF648/IL6R-L
B6 | 122 % of IL6R-BF648/IL6R-L
B7 | 94 % of IL6R-BF648/IL6R-L
B11 | 91 % of IL6R-BF648/IL6R-L
B12 | 127 % of IL6R-BF648/IL6R-L

target: T5, human FcγRIa (human, UniProt P12314 16-292, limits assumed); experiment: SPR (Biacore), FcγR over captured antibody; binding amount divided by that of IL6R-BF648/IL6R-L x 100
T5 construct: also called FcgRIa; FcγRI (CD64)
T5 sequence (P12314 16-292 limits assumed): as the sequence (P12314 16-292 limits assumed) above
Method: (§1) According to the following method, relative binding activities were calculated for the results of analyzing interactions with the respective FcγRs.

Binder | relative binding activity
B13 | 83 relative (IL6R-BF648/IL6R-L = 100)
B14 | 39 relative (IL6R-BF648/IL6R-L = 100)
B15 | 29 relative (IL6R-BF648/IL6R-L = 100)
B16 | 30 relative (IL6R-BF648/IL6R-L = 100)
B17 | 57 relative (IL6R-BF648/IL6R-L = 100)
B18 | 140 relative (IL6R-BF648/IL6R-L = 100)

Target: T6, human FcγRIIa type R (human, UniProt P12318 36-217)
T6 construct: also called FcgRIIaR; FcγRIIa(R)
T6 chain: T2 sequence with H133R
Experiment: as above
Method: as §1

Binder | relative binding activity
B13 | 423 relative (IL6R-BF648/IL6R-L = 100)
B14 | 570 relative (IL6R-BF648/IL6R-L = 100)
B15 | 602 relative (IL6R-BF648/IL6R-L = 100)
B16 | 757 relative (IL6R-BF648/IL6R-L = 100)
B17 | 691 relative (IL6R-BF648/IL6R-L = 100)
B18 | 650 relative (IL6R-BF648/IL6R-L = 100)

target: T7, human FcγRIIa type H (human, UniProt P12318 36-217); experiment: as above
T7 construct: also called FcgRIIaH; FcγRIIa(H)
T7 sequence: T2 sequence
Method: as §1

Binder | relative binding activity
B13 | 191 relative (IL6R-BF648/IL6R-L = 100)
B14 | 226 relative (IL6R-BF648/IL6R-L = 100)
B15 | 203 relative (IL6R-BF648/IL6R-L = 100)
B16 | 770 relative (IL6R-BF648/IL6R-L = 100)
B17 | 409 relative (IL6R-BF648/IL6R-L = 100)
B18 | 1670 relative (IL6R-BF648/IL6R-L = 100)

target: T8, human FcγRIIb (human, UniProt P31994 43-217, limits assumed); experiment: as above
T8 construct: also called FcgRIIb; FcγIIB
T8 sequence: T3 sequence
Method: as §1

Binder | relative binding activity
B13 | 164 relative (IL6R-BF648/IL6R-L = 100)
B14 | 177 relative (IL6R-BF648/IL6R-L = 100)
B15 | 179 relative (IL6R-BF648/IL6R-L = 100)
B16 | 183 relative (IL6R-BF648/IL6R-L = 100)
B17 | 177 relative (IL6R-BF648/IL6R-L = 100)
B18 | 62 relative (IL6R-BF648/IL6R-L = 100)

target: T9, human FcγRIIIa type V (human, UniProt P08637 17-208, limits assumed); experiment: as above
T9 construct: also called FcgRIIIaV; FcγRIIIa(V)
T9 sequence (P08637 other isoform, or with tags, fused parts or gaps limits assumed): as the sequence (P08637 other isoform, or with tags, fused parts or gaps limits assumed) above
Method: as §1

Binder | relative binding activity
B13 | 113 relative (IL6R-BF648/IL6R-L = 100)
B14 | 125 relative (IL6R-BF648/IL6R-L = 100)
B15 | 100 relative (IL6R-BF648/IL6R-L = 100)
B16 | 204 relative (IL6R-BF648/IL6R-L = 100)
B17 | 186 relative (IL6R-BF648/IL6R-L = 100)
B18 | 3350 relative (IL6R-BF648/IL6R-L = 100)

Source: US20230257470A1 (published 2023)
